The values that follow come from patent US20240018240A1 (Hoffmann-La Roche, published 2024).

For experiment [1], the target named is T1, Human CD3ε stalk-Fc(knob)-Avi/CD3δ stalk-Fc(hole) (human).
T1 construct: Heterodimer of CD3 delta and CD3 epsilon ectodomains fused to a human Fc domain with knob-into-hole modifications and C-terminal Avi-tag; also called human CD3ε/δ; CD3ε/δ
Kind of experiment: SPR (Biacore T200, 25°C), TCB format, monovalent binding. From the text: (§1) For affinity measurements, TCB molecules were captured on a C1 sensorchip (GE Healthcare) surface with immobilized anti-Fc (P329G) IgG (an antibody that specifically binds human IgG₁ Fc (P329G); “anti-PG antibody”—see WO 2017/072210, incorporated herein by reference). The experimental setup is schematically depicted in FIG. 3. Capture IgG was coupled to the sensorchip surface by direct immobilization of around 400 resonance units (RU) using the standard amine coupling kit (GE Healthcare Life Sciences).
(§2) To analyze the interaction to CD3, TCB molecules were captured for 80 s at 25 nM with a flow rate of 10 μl/min. Human and cynomolgus CD3ε stalk-Fc(knob)-Avi/CD3δ stalk-Fc(hole) (CD3ε/δ, see SEQ ID NOs 24 and 25 (human) and SEQ ID NOs 26 and 27 (cynomolgus)) were passed at a concentration of 0.122-125 nM with a flow rate of 30 μl/min through the flow cells for 300 s. The dissociation was monitored for 800 s.
(§3) Kinetic constants were derived using the Biacore T200 Evaluation Software (GE Healthcare Life Sciences), to fit rate equations for 1:1 Langmuir binding by numerical integration. The half-life (t_{1/2}) of the interaction was calculated using the formula t_{1/2}=ln 2/koff.
A general note: Surface plasmon resonance follows binding to a sensor surface in real time, without labels.

The target of experiment [2] is T1, Human CD3ε stalk-Fc(knob)-Avi/CD3δ …. The experiment is described as follows: SPR (Biacore T200, 25°C); TCB captured by anti-PG antibody on C1 chip, CD3ε/δ-Fc as analyte; t1/2 = ln 2/koff.
Source text: as §1, §2, §3

Experiment [3] deals with T2, Cynomolgus CD3ε stalk-Fc(knob)-Avi/CD3δ stalk-Fc(hole) (cynomolgus).
T2 construct: Heterodimeric Fc fusion, soluble analyte in SPR; also called cynomolgus CD3ε/δ
The description is as above.
Source text: as §1, §2, §3

For experiment [4], the target named is T1, Human CD3ε stalk-Fc(knob)-Avi/CD3δ …. The experiment is described as follows: SPR (Biacore T200, 25°C), TCB format, same conditions.
Source text: as §1, §2, §3

Experiment [5] shares this target. Kind of experiment: SPR (Biacore T200, 25°C); TCB captured by anti-PG antibody on C1 chip, CD3ε/δ-Fc as analyte; 1:1 Langmuir fit.
Source text: as §1, §2, §3

Experiment [6] addresses T2, Cynomolgus CD3ε stalk-Fc(knob)-Avi/CD3δ …. The description is as above.
Source text: as §1, §2, §3

The target of experiment [7] is T1, Human CD3ε stalk-Fc(knob)-Avi/CD3δ …. The experiment is described as follows: SPR (Biacore T200); biotinylated human CD3ε/δ on SA chip, TCB injected at 2 µg/ml; normalised to anti-huIgG capture, relative to the non-stressed sample. On the procedure:
In order to assess the effect of the deamidation site removal and its effect on the stability of the antibodies, the anti-CD3 antibodies (in TCB format) were incubated for 14 days at 37° C., pH 7.4 and at 40° C., pH 6 and further analyzed by SPR for their binding capability to human CD3ε/δ. Samples stored at −80° C. pH 6 were used as reference. The reference samples and the samples stressed at 40° C. were in 20 mM His, 140 mM NaCl, pH 6.0, and the samples stressed at 37° C. in PBS, pH 7.4, all at a concentration of 1.0 mg/ml. After the stress period (14 days) samples in PBS were dialyzed back to 20 mM His, 140 mM NaCl, pH 6.0 for further analysis.
All SPR experiments were performed on a Biacore T200 instrument (GE Healthcare) at 25° C. with HBS-P+(10 mM HEPES, 150 mM NaCl pH 7.4, 0.05% Surfactant P20) as running and dilution buffer. Biotinylated human CD3ε/δ (see Example 3, SEQ ID NOs 24 and 25) as well as biotinylated anti-huIgG (Capture Select, Thermo Scientific, #7103262100) were immobilized on a Series S Sensor Chip SA (GE Healthcare, #29104992), resulting in surface densities of at least 1000 resonance units (RU). Anti-CD3 antibodies with a concentration of 2 μg/ml were injected for 30 s at a flow rate of 5 μl/min, and dissociation was monitored for 120 s. The surface was regenerated by injecting 10 mM glycine pH 1.5 for 60 s. Bulk refractive index differences were corrected by subtracting blank injections and by subtracting the response obtained from a blank control flow cell. For evaluation, the binding response 5 seconds after injection end was taken. To normalize the binding signal, the CD3 binding was divided by the anti-huIgG response (the signal (RU) obtained upon capture of the CD3 antibody on the immobilized anti-huIgG antibody). The relative binding activity was calculated by referencing each temperature stressed sample to the corresponding, non-stressed sample.

Experiment [8] has the same target. Kind of experiment: SPR (Biacore T200, 25°C), monovalent IgG format, same conditions. On the procedure: (§4) SPR experiments were performed as described in Example 3, with the monovalent IgG molecules prepared in Example 6.
(§5) To analyze the interaction to CD3, IgG molecules were captured for 240 s at 50 nM with a flow rate of 5 μl/min. Human and cynomolgus CD3ε stalk-Fc(knob)-Avi/CD3δ-stalk-Fc(hole) were passed at a concentration of 0.061-250 nM with a flow rate of 30 μl/min through the flow cells for 300 s. The dissociation was monitored for 800 s.

Experiment [9] has the same target. The experiment is described as follows: SPR (Biacore T200, 25°C); monovalent IgG captured by anti-PG antibody on C1 chip, CD3ε/δ-Fc as analyte; t1/2 = ln 2/koff. On the procedure:
as §3, §4, §5

Experiment [10] addresses T2, Cynomolgus CD3ε stalk-Fc(knob)-Avi/CD3δ …. The experiment is described as above. On the procedure:
as §3, §4, §5

In experiment [11] the target is T1, Human CD3ε stalk-Fc(knob)-Avi/CD3δ …. The experiment is described as follows: SPR (Biacore T200, 25°C); monovalent IgG captured by anti-PG antibody on C1 chip, CD3ε/δ-Fc as analyte; 1:1 Langmuir fit; triplicates. As to the method:
as §3, §4, §5

The target in experiment [12] is T2, Cynomolgus CD3ε stalk-Fc(knob)-Avi/CD3δ …. The experiment is described as above. As to the method:
as §3, §4, §5

Some results are limits rather than exact numbers.

B1: TYRP1 T-cell bispecific antibody (TCB) comprising anti-CD3 antibody P035.093 (bispecific antibody, human IgG1, kappa, L234A L235A)
heavy 1: not shown
heavy 2: QVQLVQSGAEVKKPGASVKVSCKASGFNIKDYFLHWVRQAPGQGLEWMGWINPDNGNTVYAQKFQGRVTMTADTSTSTVYMELSSLRSEDTAVYYCTRRDYTYEKAALDYWGQGTLVTVSSASTKGPSVFPLAPSSKSTSGGTAALGCLVEDYFPEPVTVSWNSGALTSGVHTFPAVLQSSGLYSLSSVVTVPSSSLGTQTYICNVNHKPSNTKVDEKVEPKSCDKTHTCPPCPAPEAAGGPSVFLFPPKPKDTLMISRTPEVTCVVVDVSHEDPEVKFNWYVDGVEVHNAKTKPREEQYNSTYRVVSVLTVLHQDWLNGKEYKCKVSNKALGAPIEKTISKAKGQPREPQVCTLPPSRDELTKNQVSLSCAVKGFYPSDIAVEWESNGQPENNYKTTPPVLDSDGSFFLVSKLTVDKSRWQQGNVFSCSVMHEALHNHYTQKSLSLSP
light 1: DIQMTQSPSSLSASVGDRVTITCRASGNIYNYLAWYQQKPGKVPKLLIYDAKTLADGVPSRFSGSGSGTDFTLTISSLQPEDVATYYCQHFWSLPFTFGQGTKLEIKRTVAAPSVFIFPPSDRKLKSGTASVVCLLNNFYPREAKVQWKVDNALQSGNSQESVTEQDSKDSTYSLSSTLTLSKADYEKHKVYACEVTHQGLSSPVTKSFNRGEC
light 2: EVQLLESGGGLVQPGGSLRLSCAASGFTFSSYAMNWVRQAPGKGLEWVSRIRSKYNNYATYYADSVKGRFTISRDDSKNTLYLQMNSLRAEDTAVYYCVRASNFPASYVSYFAYWGQGTLVTVSSASVAAPSVFIFPPSDEQLKSGTASVVCLLNNFYPREAKVQWKVDNALQSGNSQESVTEQDSKDSTYSLSSTLTLSKADYEKHKVYACEVTHQGLSSPVTKSFNRGEC
notes: 2+1 IgG CrossFab, inverted, with charge modifications; human IgG1 Fc with knob-into-hole and P329G LALA; also called P035.093 (in TCB format); TYRP1 TCB P035.093
As to B1, the “fold higher binding half-life than CD3orig and CD3opt” value in experiment [1] was not above 4 fold. Further, the t1/2 in [2] came out at 7.55 min. This molecule registered a t1/2 in experiment [3] of 11.1 min. Moreover, the “fold increase of affinity compared to CD3orig and CD3opt” value in experiment [4] was not above 10 fold. Further, in experiment [5], the Kd worked out at 0.41 nM, the koff was found to be 0.00153 s⁻¹ and the kon was found to be 3.75e+06 M⁻¹ s⁻¹. Besides, in experiment [6], binding was put at a Kd of 0.21 nM, the koff was 0.00104 s⁻¹ and the kon turned out to be 4.89e+06 M⁻¹ s⁻¹. Also, in [7], the “binding activity [%], 2 weeks at pH 6.0/40°C” value stood at 97% and the “binding activity [%], 2 weeks at pH 7.4/37°C” value is 95%.

B2: anti-CD3 antibody P035.093 in monovalent human IgG1 format (antibody)
heavy: not shown
chain: DKTHTCPPCPAPEAAGGPSVFLFPPKPKDTLMISRTPEVTCVVVDVSHEDPEVKFNWYVDGVEVHNAKTKPREEQYNSTYRVVSVLTVLHQDWLNGKEYKCKVSNKALGAPIEKTISKAKGQPREPQVCTLPPSRDELTKNQVSLSCAVKGFYPSDIAVEWESNGQPENNYKTTPPVLDSDGSFFLVSKLTVDKSRWQQGNVFSCSVMHEALHNHYTQKSLSLSP
light: EVQLLESGGGLVQPGGSLRLSCAASGFTFSSYAMNWVRQAPGKGLEWVSRIRSKYNNYATYYADSVKGRFTISRDDSKNTLYLQMNSLRAEDTAVYYCVRASNFPASYVSYFAYWGQGTLVTVSSASVAAPSVFIFPPSDEQLKSGTASVVCLLNNFYPREAKVQWKVDNALQSGNSQESVTEQDSKDSTYSLSSTLTLSKADYEKHKVYACEVTHQGLSSPVTKSFNRGEC
notes: also called P035.093 (in monovalent IgG format)
Regarding B2, in [8], the “fold increase of affinity compared to CD3orig” value is not above 10 fold. The same molecule displayed a t1/2 in experiment [9] of 8.25 min. In experiment [10], this molecule gave a t1/2 of 11.8 min. In experiment [11], this molecule returned a Kd of 0.456 nM, a koff of 0.0014 s⁻¹ and an association rate constant (kon) of 3.08e+06 M⁻¹ s⁻¹. In [12], this molecule yielded a Kd of 0.224 nM, a koff of 0.000981 s⁻¹ and an on-rate (kon) of 4.38e+06 M⁻¹ s⁻¹.

As a reminder, the Kd is the equilibrium constant for the complex coming apart. A low value points to tighter binding. Broadly, the koff is a measure of how fast the partners let go of each other. High values mean a short-lived complex, low ones a long-lived complex. What is called kon is a measure of how fast the partners come together. A high value points to faster complex formation.
